From patent publication US20200347133A1 (INHIBRX, published 2020) come the findings set out here.

Numbering of substitutions follows the chain as printed.

Assay [1] addresses T1, CD33M, full length human CD33 protein expressed on transfected cells (human, UniProt P20138 18-303).
T1 construct: also called full length CD33
As to the kind of experiment: flow cytometry on cells transfected with CD33M; apparent Kd, one-site fit. The procedure: (§1) Binding of sdAbs to human CD33 was assessed by flow cytometry. […] MOLM-13 cells were transiently transfected with a plasmid encoding a sequence comprising “CD33M” (SEQ ID NO: 112) or a plasmid encoding a sequence comprising a truncated version, “CD33m” (SEQ ID NO: 113). The sequence encoded by the CD33M plasmid includes the leader sequence, full extracellular domain, transmembrane domain, and cytoplasmic domain. The sequence encoded by the CD33m plasmid includes the leader sequence, the membrane proximal IgC2 domain, and the transmembrane domain. Untransfected HEK 293 cells were used as CD33-negative cells. Each cell type was plated at 30,000 cells/well in FACS buffer (PBS 1% BSA, 0.1% NaN₃ pH 7.4) on a 96-well round-bottom plate. The sdAbs were diluted in FACS buffer in a 3-fold, 11 point serial dilution. The sdAb dilutions were added to the plated cells, and assay plates were incubated for 30 minutes at 4° C. After washing twice in 150 μL of FACS buffer, cells in each well were resuspended in 100 μL of 1:2000 Alexa Fluor 647-conjugated Anti-Human IgG secondary diluted in FACS buffer and incubated at 4° C. for 30 minutes. The cells were washed twice more, then bound antibody was detected by flow cytometry.
(§2) Flow cytometric analysis was performed on an Intellicyte iQue Plus and fluorescence was plotted as median fluorescence intensity. The apparent affinity (Kd, nM) was determined using one site binding non-linear regression in PRISM graph software.
Background: Flow cytometry measures light scatter and fluorescence of single cells or particles in a stream.

The target in assay [2] is T2, CD33m, truncated human CD33 protein expressed on transfected cells (human, UniProt P20138 140-259).
T2 construct: leader and transmembrane domain are not in it; also called truncated CD33
T2 sequence (P20138 140-259 limits assumed): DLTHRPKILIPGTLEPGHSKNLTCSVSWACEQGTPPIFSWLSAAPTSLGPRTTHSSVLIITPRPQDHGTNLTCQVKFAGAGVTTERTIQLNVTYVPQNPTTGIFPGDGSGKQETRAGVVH
As to the kind of experiment: flow cytometry on cells transfected with truncated CD33m; apparent Kd, one-site fit; CD33m isoform, not CD33M. The procedure: (§3) Binding of sdAbs to human CD33 was assessed by flow cytometry. […] MOLM-13 cells were transiently transfected with a plasmid encoding a sequence comprising “CD33M” (SEQ ID NO: 112) or a plasmid encoding a sequence comprising a truncated version, “CD33m” (SEQ ID NO: 113). The sequence encoded by the CD33M plasmid includes the leader sequence, full extracellular domain, transmembrane domain, and cytoplasmic domain. The sequence encoded by the CD33m plasmid includes the leader sequence, the membrane proximal IgC2 domain, and the transmembrane domain. Untransfected HEK 293 cells were used as CD33-negative cells. Each cell type was plated at 30,000 cells/well in FACS buffer (PBS 1% BSA, 0.1% NaN₃ pH 7.4) on a 96-well round-bottom plate. The sdAbs were diluted in FACS buffer in a 3-fold, 11 point serial dilution. The sdAb dilutions were added to the plated cells, and assay plates were incubated for 30 minutes at 4° C. […] The cells were washed twice more, then bound antibody was detected by flow cytometry.
as §2

Assay [3] concerns the target T2, CD33m, truncated human CD33 protein …. Kind of assay: flow cytometry on cells labelled CD33m-HEK-293, anti-human IgG Alexa Fluor 647 secondary, median fluorescence. The protocol:
as §3, §2

Assay [4] has the same target. Kind of assay: flow cytometry on cells transfected with truncated CD33m; apparent Kd, one-site fit. The protocol:
as §1, §2

In assay [5] the target is T1, CD33M, full length human CD33 protein …. As to the kind of experiment: flow cytometry on cells labelled CD33M-HEK-293, anti-human IgG Alexa Fluor 647 secondary, median fluorescence. The procedure: Binding of sdAbs to human CD33 was assessed by flow cytometry. […] […] The sequence encoded by the CD33M plasmid includes the leader sequence, full extracellular domain, transmembrane domain, and cytoplasmic domain. The sequence encoded by the CD33m plasmid includes the leader sequence, the membrane proximal IgC2 domain, and the transmembrane domain. Untransfected HEK 293 cells were used as CD33-negative cells. Each cell type was plated at 30,000 cells/well in FACS buffer (PBS 1% BSA, 0.1% NaN₃ pH 7.4) on a 96-well round-bottom plate. The sdAbs were diluted in FACS buffer in a 3-fold, 11 point serial dilution. The sdAb dilutions were added to the plated cells, and assay plates were incubated for 30 minutes at 4° C. After washing twice in 150 μL of FACS buffer, cells in each well were resuspended in 100 μL of 1:2000 Alexa Fluor 647-conjugated Anti-Human IgG secondary diluted in FACS buffer and incubated at 4° C. for 30 minutes. The cells were washed twice more, then bound antibody was detected by flow cytometry.
as §2

Assay [6] shares this target. As to the kind of experiment: flow cytometry on Molm-13 cells transfected with CD33 (CD33M per Table 3), anti-human IgG Alexa Fluor 647 secondary, median fluorescence. The protocol: as §3, §2
For assay [7] the target is unchanged. Kind of assay: flow cytometry on Molm-13 cells transfected with CD33 (CD33M per Table 3), fluorescent anti-human IgG secondary, axis Median BL-1H.

T1 sequence (P20138 18-303): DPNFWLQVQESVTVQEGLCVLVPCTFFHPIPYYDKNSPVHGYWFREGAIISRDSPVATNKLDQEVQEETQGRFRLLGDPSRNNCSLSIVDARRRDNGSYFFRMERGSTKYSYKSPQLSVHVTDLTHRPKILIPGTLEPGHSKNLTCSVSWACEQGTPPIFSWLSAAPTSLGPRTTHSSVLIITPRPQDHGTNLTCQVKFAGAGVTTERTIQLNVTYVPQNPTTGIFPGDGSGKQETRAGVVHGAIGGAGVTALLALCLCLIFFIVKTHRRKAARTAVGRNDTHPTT

B1: A07 sdAb (A07 VHH domain fused to human IgG1 xELL Fc region) (Fc fusion)
chain: QVQLVQSGGGLVQAGGSLTLSCAASRSSGIDVMGWYRQAPGKERELVAEISGVGDTNYAASLADRFTVSRDNAKNTVYLQMKNLKPEDTAVYYCNAHSFLDLVGAWGQGTQVTVDKTHTCPPCPAPGGPSVFLFPPKPKDTLMISRTPEVTCVVVDVSHEDPEVKFNWYVDGVEVHNAKTKPREEQYNSTYRVVSVLTVLHQDWLNGKEYKCKVSNKALPAPIEKTISKAKGQPREPQVYTLPPSRDELTKNQVSLTCLVKGFYPSDIAVEWESNGQPENNYKTTPPVLDSDGSFFLYSKLTVDKSRWQQGNVFSCSVMHEALHNHYTQKSLSLSPGK
notes: VHH-Fc; no linker stated
With B1, the Kd in assay [1] was 53.5 nM; in assay [2], 19.9 nM.

B2: hzA07v4 sdAb (hzA07v4 VHH domain fused to human IgG1 xELL Fc region) (Fc fusion)
chain: B1 chain with Q1E, Q6E, L11E, A14P, T19R, K82S, N83S, K85R, P86A, Q111L
notes: VHH-Fc; no linker stated; also called hzA07v4-IgG1
Broadly, the EC50 (read off the curve) is the concentration that produces a half-maximal response. Higher therefore signals a need for much substance. For the molecule B2, the “EC50 (read off the curve)” value in assay [3] was around 9 nM. Moreover, the results for the Kd in assay [4] and in assay [1] were 11.8 nM and 56.6 nM, respectively.

B3: hzF02v18 sdAb (hzF02v18 VHH domain fused to human IgG1 xELL Fc region) (Fc fusion)
chain: EVQLVESGGGEVQPGGSLRLSCAASGSISSYNVMGWYRQAPGKQRELVAQINAYGDTNYANAVVGRFTISRDNAKNTVYLQMSSLRAEDTAVYYCNGQRMLENYTYRDQSWGQGTLVTVDKTHTCPPCPAPGGPSVFLFPPKPKDTLMISRTPEVTCVVVDVSHEDPEVKFNWYVDGVEVHNAKTKPREEQYNSTYRVVSVLTVLHQDWLNGKEYKCKVSNKALPAPIEKTISKAKGQPREPQVYTLPPSRDELTKNQVSLTCLVKGFYPSDIAVEWESNGQPENNYKTTPPVLDSDGSFFLYSKLTVDKSRWQQGNVFSCSVMHEALHNHYTQKSLSLSPGK
notes: VHH-Fc; no linker stated; also called hzF02v18-IgG1
Regarding B3, the figures for the “EC50 (read off the curve)” value in assay [3] and in assay [5] were around 8 nM and 10 to 100 nM, respectively. In addition, the Kd in assay [4] came out at 9.13 nM; in assay [1], 14.8 nM.

B4: hz1C7v1 sdAb (hz1C7v1 VHH domain fused to human IgG1 xELL Fc region) (Fc fusion)
chain: EVQLVESGGGEVQPGGSLRLSCAASGRTFSGYIMGWFRQAPGKERELVARISGNNLSTEYAESVKGRFTISRDNAKNTLYLQMSSLRAEDTAVYYCAAEYDYSSGDFVYWGQGTLVTVDKTHTCPPCPAPGGPSVFLFPPKPKDTLMISRTPEVTCVVVDVSHEDPEVKFNWYVDGVEVHNAKTKPREEQYNSTYRVVSVLTVLHQDWLNGKEYKCKVSNKALPAPIEKTISKAKGQPREPQVYTLPPSRDELTKNQVSLTCLVKGFYPSDIAVEWESNGQPENNYKTTPPVLDSDGSFFLYSKLTVDKSRWQQGNVFSCSVMHEALHNHYTQKSLSLSPGK
notes: VHH-Fc; no linker stated; also called hz1C7v1-IgG1
B4: in assay [1], the Kd amounted to 6.25 nM. The “EC50 (read off the curve)” value in assay [6] is around 6 nM.

B5: hz1C7v11 sdAb (hz1C7v11 VHH domain fused to human IgG1 xELL Fc region) (Fc fusion)
chain: B4 chain with S57A
notes: VHH-Fc; no linker stated; also called hz1C7v11-IgG1
For the molecule B5, the “EC50 (read off the curve)” value in assay [7] is around 5 nM. The Kd in assay [1] was 5.45 nM.
